Patent US20210041439A1

What was measured:
[1] = system: cyclin E (substrate of the in vitro ubiquitylation assay)
[2] = target: biotinylated phosphorylated cyclin E degron peptide; assay: ALPHAscreen, 1536-well primary screen, n=518 plates
[3] = target: biotinylated phosphorylated cyclin E degron peptide; assay: ALPHAscreen, 384-well LOPAC screen; 25 nM FBW7 and 25 nM cyclin E phosphopeptide
[4] = target: biotinylated phosphorylated cyclin E degron peptide; assay: ALPHAscreen, 384-well; His-FBW7 on Ni-chelate acceptor beads, biotin-peptide on streptavidin donor beads

Substance	reconstituted in vitro Cyclin E polyubiquitylation assay [1]	signal-to-background (S:B) (Wt-FBW7+pCycE-peptide high control versus Wt-FBW7+unphosphorylated CycE peptide low control) [2]	S:B ratio (wt-FBW7 high control versus mutant FBW7 low control, both with cyclin E phosphopeptide) [3]	fold ALPHA signal, phosphorylated versus unphosphorylated cyclin E degron peptide [4]
mutant FBW7 R505L (FBW7^ARG), recombinant dimeric Skp1-FBW7 complex	FBW7^ARG was inactive	–	–	–
wild-type F-box/WD repeat-containing protein 7 (FBW7), recombinant dimeric Skp1-FBW7 complex	wt-FBW7 was highly active	–	–	–
wild-type F-box/WD repeat-containing protein 7 (FBW7), recombinant dimeric Skp1-FBW7 complex (from UniProt P63208 1-163) (enzyme)	–	69.3	14.6	100 fold
